Laboratory results from article PMC5887453 (Nucleic Acids Research, 2018).

Legend:
Test in all cases: native gel or EMSA
PhoEF-2 M167S = target: T1, PhoEF-2 M167S (Pyrococcus horikoshii, UniProt O59521 1-732, M167S)
T1 sequence (looked up): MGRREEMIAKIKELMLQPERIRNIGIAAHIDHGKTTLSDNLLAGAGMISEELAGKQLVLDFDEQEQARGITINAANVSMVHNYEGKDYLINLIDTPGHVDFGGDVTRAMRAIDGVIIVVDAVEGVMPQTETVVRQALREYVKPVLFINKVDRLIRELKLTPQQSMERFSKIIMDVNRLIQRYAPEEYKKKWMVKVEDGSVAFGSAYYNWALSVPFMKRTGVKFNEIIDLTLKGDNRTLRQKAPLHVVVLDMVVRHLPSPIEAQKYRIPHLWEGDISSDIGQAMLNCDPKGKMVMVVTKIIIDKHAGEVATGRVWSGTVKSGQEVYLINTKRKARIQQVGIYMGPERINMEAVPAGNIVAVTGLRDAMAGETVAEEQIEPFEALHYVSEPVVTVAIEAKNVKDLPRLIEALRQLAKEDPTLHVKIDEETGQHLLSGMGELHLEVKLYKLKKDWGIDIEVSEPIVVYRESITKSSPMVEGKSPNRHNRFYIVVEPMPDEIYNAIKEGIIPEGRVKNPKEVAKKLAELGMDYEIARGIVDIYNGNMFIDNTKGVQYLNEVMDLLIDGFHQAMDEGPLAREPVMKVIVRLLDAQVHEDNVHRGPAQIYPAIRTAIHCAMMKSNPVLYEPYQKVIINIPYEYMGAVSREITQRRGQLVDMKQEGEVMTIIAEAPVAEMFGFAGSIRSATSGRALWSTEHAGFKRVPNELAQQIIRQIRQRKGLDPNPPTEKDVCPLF

PhoEF-2 V198S = target: T2, PhoEF-2 V198S (Pyrococcus horikoshii, UniProt O59521 1-732, V198S)
T2 sequence (looked up): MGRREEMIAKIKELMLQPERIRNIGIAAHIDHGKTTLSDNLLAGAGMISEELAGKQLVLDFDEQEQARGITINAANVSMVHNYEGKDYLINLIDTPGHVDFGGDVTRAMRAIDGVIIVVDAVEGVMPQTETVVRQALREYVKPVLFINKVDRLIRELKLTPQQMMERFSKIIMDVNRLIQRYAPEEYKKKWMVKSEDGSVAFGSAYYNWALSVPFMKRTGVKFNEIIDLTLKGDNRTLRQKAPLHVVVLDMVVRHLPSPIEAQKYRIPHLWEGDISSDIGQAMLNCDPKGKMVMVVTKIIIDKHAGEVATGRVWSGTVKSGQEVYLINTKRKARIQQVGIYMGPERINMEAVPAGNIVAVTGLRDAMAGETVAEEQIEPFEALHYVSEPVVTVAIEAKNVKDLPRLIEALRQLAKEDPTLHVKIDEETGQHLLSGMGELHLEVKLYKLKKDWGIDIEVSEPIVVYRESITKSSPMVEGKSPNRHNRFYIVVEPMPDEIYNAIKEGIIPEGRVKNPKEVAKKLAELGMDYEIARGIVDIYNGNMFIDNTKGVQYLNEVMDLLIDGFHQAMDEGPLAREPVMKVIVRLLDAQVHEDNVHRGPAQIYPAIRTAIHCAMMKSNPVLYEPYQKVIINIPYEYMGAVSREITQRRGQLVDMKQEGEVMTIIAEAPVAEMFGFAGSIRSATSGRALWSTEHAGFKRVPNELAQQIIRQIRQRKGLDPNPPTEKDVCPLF

PhoEF-2 L214S/V216S = target: T3, PhoEF-2 L214S/V216S (Pyrococcus horikoshii, UniProt O59521 1-732, L214S | V216S)
T3 sequence (looked up): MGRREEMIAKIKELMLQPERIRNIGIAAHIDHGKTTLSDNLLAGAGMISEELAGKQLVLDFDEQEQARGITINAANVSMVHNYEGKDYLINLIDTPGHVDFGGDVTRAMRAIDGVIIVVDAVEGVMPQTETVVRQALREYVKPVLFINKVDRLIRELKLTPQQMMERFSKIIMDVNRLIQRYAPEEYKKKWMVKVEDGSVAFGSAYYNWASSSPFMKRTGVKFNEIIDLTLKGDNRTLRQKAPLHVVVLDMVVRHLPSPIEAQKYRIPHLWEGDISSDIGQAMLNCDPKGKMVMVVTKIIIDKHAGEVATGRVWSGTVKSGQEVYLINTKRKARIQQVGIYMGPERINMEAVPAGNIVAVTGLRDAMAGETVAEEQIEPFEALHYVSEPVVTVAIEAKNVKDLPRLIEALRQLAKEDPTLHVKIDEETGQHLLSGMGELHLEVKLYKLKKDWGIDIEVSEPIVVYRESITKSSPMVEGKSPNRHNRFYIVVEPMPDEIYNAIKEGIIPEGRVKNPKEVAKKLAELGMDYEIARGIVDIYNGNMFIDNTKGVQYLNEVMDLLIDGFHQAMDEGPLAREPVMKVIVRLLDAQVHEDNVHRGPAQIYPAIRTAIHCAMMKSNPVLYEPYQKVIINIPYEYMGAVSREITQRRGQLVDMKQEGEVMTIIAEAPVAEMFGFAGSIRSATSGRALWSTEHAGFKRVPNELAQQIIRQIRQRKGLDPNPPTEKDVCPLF

Measured: binding result

B1: Pyrococcus horikoshii ribosomal stalk protein P1 (natural protein, UniProt O57705 1-108, looked up)
chain: MEYVYAALLLHSVGKEINEENLKAVLQAAGVEPEEARIKALVAALEGVNIDEVIEKAAMPVAVAAAPAAAPAEAGGEEKKEEEKKEEEEKEEEVSEEEALAGLSALFG
modifications: in the SPR only: biotin on amino groups via a PEG linker (EZ-Link NHS-PEG4-Biotin)
binds: all assays above
